Blank lines part the entries; values can stand above or below the binder they belong to.
Assays:
4H3378-AA = target: T1, 4H3378-AA; assay: two-hybrid library CCmax; conditions: mean of both orientations;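 also: natural log of median RNA to DNA barcode read ratio; higher means stronger binding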
T1 chain: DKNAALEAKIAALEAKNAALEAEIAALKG

4H3718-AA = target: T2, 4H3718-AA; assay: two-hybrid library CCmax; conditions: mean of both orientations;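 also: natural log of median RNA to DNA barcode read ratio; higher means stronger binding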
T2 chain: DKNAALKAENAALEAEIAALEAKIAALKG

4H3865-AA = target: T3, 4H3865-AA; assay: two-hybrid library CCmax; conditions: mean of both orientations;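 also: natural log of median RNA to DNA barcode read ratio; higher means stronger binding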
T3 chain: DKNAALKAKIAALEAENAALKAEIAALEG

4H982-AA = target: T4, 4H982-AA; assay: two-hybrid library CCmax; conditions: mean of both orientations;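 also: natural log of median RNA to DNA barcode read ratio; higher means stronger binding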
T4 chain: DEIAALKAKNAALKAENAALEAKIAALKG

4H3133-AA = target: T5, 4H3133-AA; assay: two-hybrid library CCmax;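 also: natural log of median RNA to DNA barcode read ratio; higher means stronger binding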
T5 chain: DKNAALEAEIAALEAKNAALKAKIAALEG

4H3606-AA = target: T6, 4H3606-AA; assay: two-hybrid library CCmax; conditions: mean of both orientations;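 also: natural log of median RNA to DNA barcode read ratio; higher means stronger binding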
T6 chain: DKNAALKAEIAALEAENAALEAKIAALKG

4H3631-AA = target: T7, 4H3631-AA; assay: two-hybrid library CCmax; conditions: mean of both orientations
T7 chain: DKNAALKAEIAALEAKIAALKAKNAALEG

4H3413-AA = target: T8, 4H3413-AA; assay: two-hybrid library CCmax; conditions: mean of both orientations
T8 chain: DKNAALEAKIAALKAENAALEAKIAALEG

4H3162-AA = target: T9, 4H3162-AA; assay: two-hybrid library CCmax; conditions: mean of both orientations
T9 chain: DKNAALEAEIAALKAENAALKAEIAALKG

4H3588-AA = target: T10, 4H3588-AA; assay: two-hybrid library CCmax; conditions: mean of both orientations
T10 chain: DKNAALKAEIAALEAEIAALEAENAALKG

4H32-AA = target: T11, 4H32-AA; assay: two-hybrid library CCmax; conditions: mean of both orientations
T11 chain: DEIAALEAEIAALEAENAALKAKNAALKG

4H3697-AA = target: T12, 4H3697-AA; assay: two-hybrid library CCmax; conditions: mean of both orientations
T12 chain: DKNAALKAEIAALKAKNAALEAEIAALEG

4H697-AA = target: T13, 4H697-AA; assay: two-hybrid library CCmax; conditions: mean of both orientations
T13 chain: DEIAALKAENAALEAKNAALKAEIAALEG

4H340-AA = target: T14, 4H340-AA; assay: two-hybrid library CCmax; conditions: mean of both orientations
T14 chain: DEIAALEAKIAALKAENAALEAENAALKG

4H384-AA = target: T15, 4H384-AA; assay: two-hybrid library CCmax; conditions: mean of both orientations
T15 chain: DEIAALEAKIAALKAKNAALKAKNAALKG

4H3974-AA = target: T16, 4H3974-AA; assay: two-hybrid library CCmax; conditions: mean of both orientations
T16 chain: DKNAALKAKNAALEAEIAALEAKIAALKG

4H341-AA = target: T17, 4H341-AA; assay: two-hybrid library CCmax
T17 chain: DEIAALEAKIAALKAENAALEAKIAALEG

4H3777-AA = target: T18, 4H3777-AA; assay: two-hybrid library CCmax; conditions: mean of both orientations
T18 chain: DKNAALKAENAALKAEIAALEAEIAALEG

4H3782-AA = target: T19, 4H3782-AA; assay: two-hybrid library CCmax; conditions: mean of both orientations
T19 chain: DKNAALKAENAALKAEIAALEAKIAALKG

4H63-AA = target: T20, 4H63-AA; assay: two-hybrid library CCmax; conditions: mean of both orientations
T20 chain: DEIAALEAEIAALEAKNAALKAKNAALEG

4H380-AA = target: T21, 4H380-AA; assay: two-hybrid library CCmax; conditions: mean of both orientations
T21 chain: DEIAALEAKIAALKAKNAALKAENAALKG

4H3595-AA = target: T22, 4H3595-AA; assay: two-hybrid library CCmax; conditions: mean of both orientations
T22 chain: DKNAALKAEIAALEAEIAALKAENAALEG

4H432-AA = target: T23, 4H432-AA; assay: two-hybrid library CCmax; conditions: mean of both orientations
T23 chain: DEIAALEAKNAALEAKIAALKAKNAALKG

4H3449-AA = target: T24, 4H3449-AA; assay: two-hybrid library CCmax; conditions: mean of both orientations
T24 chain: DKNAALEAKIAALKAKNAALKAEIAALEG

4H3939-AA = target: T25, 4H3939-AA; assay: two-hybrid library CCmax; conditions: mean of both orientations
T25 chain: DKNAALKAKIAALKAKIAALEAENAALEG

4H446-AA = target: T26, 4H446-AA; assay: two-hybrid library CCmax; conditions: mean of both orientations
T26 chain: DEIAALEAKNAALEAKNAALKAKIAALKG

4H464-AA = target: T27, 4H464-AA; assay: two-hybrid library CCmax; conditions: mean of both orientations
T27 chain: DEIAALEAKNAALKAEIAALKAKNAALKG

4H3915-AA = target: T28, 4H3915-AA; assay: two-hybrid library CCmax; conditions: mean of both orientations
T28 chain: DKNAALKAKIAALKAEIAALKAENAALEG

4H3414-AA = target: T29, 4H3414-AA; assay: two-hybrid library CCmax; conditions: mean of both orientations
T29 chain: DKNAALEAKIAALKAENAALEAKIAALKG

4H3619-AA = target: T30, 4H3619-AA; assay: two-hybrid library CCmax; conditions: mean of both orientations
T30 chain: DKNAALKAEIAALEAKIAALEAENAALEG

4H3629-AA = target: T31, 4H3629-AA; assay: two-hybrid library CCmax; conditions: mean of both orientations
T31 chain: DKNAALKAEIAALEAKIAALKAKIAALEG

4H3969-AA = target: T32, 4H3969-AA; assay: two-hybrid library CCmax
T32 chain: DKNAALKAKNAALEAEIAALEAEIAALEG

4H483-AA = target: T33, 4H483-AA; assay: two-hybrid library CCmax; conditions: mean of both orientations
T33 chain: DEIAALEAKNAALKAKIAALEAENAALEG

4H754-bA = target: T34, 4H754-bA; assay: two-hybrid library CCNG1; conditions: mean of both orientations
T34 chain: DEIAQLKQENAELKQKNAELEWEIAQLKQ

4H883-bA = target: T35, 4H883-bA; assay: two-hybrid library CCNG1
T35 chain: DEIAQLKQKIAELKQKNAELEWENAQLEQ

4H4001-bA = target: T36, 4H4001-bA; assay: two-hybrid library CCNG1
T36 chain: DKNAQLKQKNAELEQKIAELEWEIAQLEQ

4H568-bA = target: T37, 4H568-bA; assay: two-hybrid library CCNG1
T37 chain: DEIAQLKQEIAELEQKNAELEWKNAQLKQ

4H454-bA = target: T38, 4H454-bA; assay: two-hybrid library CCNG1
T38 chain: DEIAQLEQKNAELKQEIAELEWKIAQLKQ

4H687-bA = target: T39, 4H687-bA; assay: two-hybrid library CCNG1
T39 chain: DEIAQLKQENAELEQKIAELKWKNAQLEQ

4H967-bA = target: T40, 4H967-bA; assay: two-hybrid library CCNG1
T40 chain: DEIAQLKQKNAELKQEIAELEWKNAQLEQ

4H607-bA = target: T41, 4H607-bA; assay: two-hybrid library CCNG1
T41 chain: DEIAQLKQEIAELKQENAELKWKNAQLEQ

4H953-bA = target: T42, 4H953-bA; assay: two-hybrid library CCNG1
T42 chain: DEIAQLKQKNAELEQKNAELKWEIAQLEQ

4H797-bA = target: T43, 4H797-bA; assay: two-hybrid library CCNG1
T43 chain: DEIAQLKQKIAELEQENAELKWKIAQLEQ

4H918-bA = target: T44, 4H918-bA; assay: two-hybrid library CCNG1
T44 chain: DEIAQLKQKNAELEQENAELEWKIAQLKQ

4H717-bA = target: T45, 4H717-bA; assay: two-hybrid library CCNG1
T45 chain: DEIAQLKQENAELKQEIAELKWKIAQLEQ

4H72-bA = target: T46, 4H72-bA; assay: two-hybrid library CCNG1
T46 chain: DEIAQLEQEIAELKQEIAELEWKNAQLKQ

4H3855-bA = target: T47, 4H3855-bA; assay: two-hybrid library CCNG1
T47 chain: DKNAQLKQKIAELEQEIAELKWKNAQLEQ

4H908-bA = target: T48, 4H908-bA; assay: two-hybrid library CCNG1
T48 chain: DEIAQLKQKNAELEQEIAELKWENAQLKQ

interaction score (4H3378-AA): -1.1
interaction score (4H3718-AA): -0.85
interaction score (4H3865-AA): 0.466
interaction score (4H982-AA): 0.112
interaction score (4H3133-AA): -0.726
interaction score (4H3606-AA): 1.29
interaction score (4H3631-AA): -0.654
interaction score (4H3413-AA): 1.97
interaction score (4H3162-AA): -1.24
interaction score (4H3588-AA): -1.47
interaction score (4H32-AA): -1.83
interaction score (4H3697-AA): -0.244
interaction score (4H697-AA): -1.6
interaction score (4H340-AA): -0.539
interaction score (4H384-AA): -1.58
B1: 4H3133-AA (peptide)
chain: DKNAALEAEIAALEAKNAALKAKIAALEG

interaction score (4H3974-AA): 0.589
interaction score (4H341-AA): 1.84
interaction score (4H3777-AA): -1.17
interaction score (4H3782-AA): 0.558
interaction score (4H63-AA): 1.74
interaction score (4H380-AA): -1.07
interaction score (4H3595-AA): -1.29
interaction score (4H432-AA): -1.21
interaction score (4H3449-AA): 0.461
interaction score (4H3939-AA): -1.29
interaction score (4H446-AA): 0.795
interaction score (4H464-AA): 0.352
interaction score (4H3915-AA): -1.31
interaction score (4H3414-AA): 0.22
interaction score (4H3619-AA): -1.22
interaction score (4H3629-AA): 2.2
interaction score (4H3969-AA): 0.0125
interaction score (4H483-AA): 0.738
B2: 4H341-AA (peptide)
chain: DEIAALEAKIAALKAENAALEAKIAALEG

interaction score (4H754-bA): -1.21
interaction score (4H883-bA): -1.04
interaction score (4H4001-bA): 0.153
interaction score (4H568-bA): -0.231
interaction score (4H454-bA): -0.709
interaction score (4H687-bA): -0.551
interaction score (4H967-bA): -0.636
interaction score (4H607-bA): -0.96
interaction score (4H953-bA): -1.69
interaction score (4H797-bA): -0.875
interaction score (4H918-bA): -1.43
interaction score (4H717-bA): -0.336
interaction score (4H72-bA): 0.932
interaction score (4H3855-bA): 0.372
interaction score (4H908-bA): -0.51
B3: 4H3855-bA (peptide)
chain: DKNAQLKQKIAELEQEIAELKWKNAQLEQ

From paper PMC10397247
